US20250376539A1 (KIRA PHARMACEUTICALS SUZHOU, published 2025)
Each block holds one binder with its values, some of them ahead of it.

Legend:
[1] = biological target: T1, recombinant human C2a, C-terminal 6His-tag, made in house (CHO cell expression) (human, UniProt P06681 244-752); assay: ELISA
T1 sequence: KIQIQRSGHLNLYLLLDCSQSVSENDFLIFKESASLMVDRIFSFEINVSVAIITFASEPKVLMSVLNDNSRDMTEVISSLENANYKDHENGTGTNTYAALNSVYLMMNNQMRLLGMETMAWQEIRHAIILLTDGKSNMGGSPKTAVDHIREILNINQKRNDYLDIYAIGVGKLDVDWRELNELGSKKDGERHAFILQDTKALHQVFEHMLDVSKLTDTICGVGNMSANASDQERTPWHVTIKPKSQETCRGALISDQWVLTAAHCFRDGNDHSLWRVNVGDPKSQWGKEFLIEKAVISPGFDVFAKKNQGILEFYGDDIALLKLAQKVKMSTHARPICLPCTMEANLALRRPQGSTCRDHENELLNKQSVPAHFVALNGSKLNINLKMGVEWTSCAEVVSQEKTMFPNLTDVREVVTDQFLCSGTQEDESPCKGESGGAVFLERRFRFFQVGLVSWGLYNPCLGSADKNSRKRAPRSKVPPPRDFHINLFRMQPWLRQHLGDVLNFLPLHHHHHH

[2] = biological target: T2, recombinant cynomolgus (cyno) complement C2 (XP_005553508.1), C-terminal 6His-tag, made in house (CHO cell … (cynomolgus monkey (Macaca fascicularis), UniProt P06681 21-752 (human entry))); assay: ELISA
T2 construct: also called cyno C2; Cyno C2
T2 chain: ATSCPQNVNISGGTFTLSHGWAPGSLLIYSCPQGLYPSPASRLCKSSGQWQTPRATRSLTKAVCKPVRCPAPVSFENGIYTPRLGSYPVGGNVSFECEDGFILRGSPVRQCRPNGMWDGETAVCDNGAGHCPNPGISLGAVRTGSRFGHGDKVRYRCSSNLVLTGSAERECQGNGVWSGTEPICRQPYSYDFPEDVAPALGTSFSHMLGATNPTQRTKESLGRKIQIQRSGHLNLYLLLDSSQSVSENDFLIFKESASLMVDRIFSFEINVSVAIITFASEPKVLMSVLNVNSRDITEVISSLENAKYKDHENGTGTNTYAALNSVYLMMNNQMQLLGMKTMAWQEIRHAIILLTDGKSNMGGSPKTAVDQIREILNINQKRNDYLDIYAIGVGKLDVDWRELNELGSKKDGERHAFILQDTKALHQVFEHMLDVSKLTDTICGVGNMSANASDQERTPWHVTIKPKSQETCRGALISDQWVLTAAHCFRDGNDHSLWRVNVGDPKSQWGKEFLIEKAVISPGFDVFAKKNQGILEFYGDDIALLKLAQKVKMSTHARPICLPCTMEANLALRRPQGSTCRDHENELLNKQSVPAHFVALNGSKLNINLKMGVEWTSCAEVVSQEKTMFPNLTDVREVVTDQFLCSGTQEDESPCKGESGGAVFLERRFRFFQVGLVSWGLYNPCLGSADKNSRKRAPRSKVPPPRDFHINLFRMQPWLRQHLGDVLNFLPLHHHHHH

[3] = biological target: T3, recombinant cyno C2a, C-terminal 6His-tag, made in house (CHO cell expression) (cynomolgus monkey, UniProt P06681 244-752 (human entry)); assay: ELISA
T3 chain: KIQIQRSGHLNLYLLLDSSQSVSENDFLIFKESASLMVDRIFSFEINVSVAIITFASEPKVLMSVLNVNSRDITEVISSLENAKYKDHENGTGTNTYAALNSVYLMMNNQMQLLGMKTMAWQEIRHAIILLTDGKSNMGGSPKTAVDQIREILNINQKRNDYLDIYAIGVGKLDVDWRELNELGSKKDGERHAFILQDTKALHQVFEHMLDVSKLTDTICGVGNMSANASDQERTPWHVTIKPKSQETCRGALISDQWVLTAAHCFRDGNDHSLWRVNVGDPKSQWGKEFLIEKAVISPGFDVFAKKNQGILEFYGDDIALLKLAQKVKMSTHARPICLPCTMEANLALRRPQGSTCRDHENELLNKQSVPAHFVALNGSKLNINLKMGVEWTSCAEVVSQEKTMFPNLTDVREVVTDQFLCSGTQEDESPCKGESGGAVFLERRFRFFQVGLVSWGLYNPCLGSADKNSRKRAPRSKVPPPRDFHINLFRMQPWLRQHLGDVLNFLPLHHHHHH

[4] = biological target: T4, recombinant human complement C2 (NP_000054.2), C-terminal 6His-tag, made in house (CHO cell expression) (human, UniProt P06681 21-752); assay: ELISA
T4 construct: a linker before the tag is not described; also called human C2; Human C2
T4 sequence: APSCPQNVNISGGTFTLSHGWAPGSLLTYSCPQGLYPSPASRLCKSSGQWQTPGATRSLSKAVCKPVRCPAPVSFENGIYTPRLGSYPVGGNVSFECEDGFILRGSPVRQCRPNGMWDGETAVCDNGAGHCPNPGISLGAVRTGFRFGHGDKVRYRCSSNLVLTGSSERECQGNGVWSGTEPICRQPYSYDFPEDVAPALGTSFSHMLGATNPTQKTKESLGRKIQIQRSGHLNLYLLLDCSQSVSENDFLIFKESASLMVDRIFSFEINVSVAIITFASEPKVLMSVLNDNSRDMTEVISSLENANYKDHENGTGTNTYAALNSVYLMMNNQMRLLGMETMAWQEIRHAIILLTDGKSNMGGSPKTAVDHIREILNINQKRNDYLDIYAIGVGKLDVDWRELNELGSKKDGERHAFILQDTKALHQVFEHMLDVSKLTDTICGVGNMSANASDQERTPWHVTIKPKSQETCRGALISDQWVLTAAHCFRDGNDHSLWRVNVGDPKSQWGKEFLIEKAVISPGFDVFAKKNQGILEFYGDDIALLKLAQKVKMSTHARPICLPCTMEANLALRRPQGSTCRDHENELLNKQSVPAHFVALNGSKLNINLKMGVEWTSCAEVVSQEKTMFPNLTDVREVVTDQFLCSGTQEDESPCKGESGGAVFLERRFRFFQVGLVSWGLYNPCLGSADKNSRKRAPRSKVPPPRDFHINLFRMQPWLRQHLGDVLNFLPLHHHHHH

[5] = biological target: T4, recombinant human complement C2 …; assay: drawn kinetic table; method and antigen not printed on the sheet, legend paragraph 101 says only anti-C2 antibodies; human C2 taken from the context of Examples 5 and 10
[6] = biological target: T2, recombinant cynomolgus (cyno) …; assay: BLI (Gator), antibody on probe; 600 s association at pH 7.4, 600 s dissociation at pH 7.4
Experimental: (§1) The histidine mutant constructs in Table 4 were tested for their pH-dependent dissociation from human C2. Probe-immobilized anti-C2 antibodies were incubated with C2 at pH 7.4 for 600s, followed by a 600s dissociation period in K Buffer at pH 7.4 or pH 5.8. The data were processed and analyzed by the Gator evaluation software.
(§2) Non-fusion mAb were used for comparison.

[7] = biological target: T4, recombinant human complement C2 …; assay: as above
Experimental: as §1, §2

[8] = biological target: T4, recombinant human complement C2 …; assay: binding kinetics, neutral pH (BLI presumed)
[9] = biological target: T2, recombinant cynomolgus (cyno) …; assay: binding kinetics (BLI presumed)
[10] = biological target: T2, recombinant cynomolgus (cyno) …; assay: BLI (Gator), antibody on probe; 600 s association at pH 7.4, 600 s dissociation at pH 5.8
Experimental: as §1, §2

[11] = biological target: T4, recombinant human complement C2 …; assay: as above
Experimental: as §1, §2

[12] = biological target: T2, recombinant cynomolgus (cyno) …; assay: BLI (Gator); ratio of dissociation at pH 5.8 to pH 7.4
Experimental: as §1, §2

[13] = biological target: T4, recombinant human complement C2 …; assay: as above
Experimental: as §1, §2

[14] = biological target: T4, recombinant human complement C2 …; assay: kinetic binding measurement, table 'Human C2 binding affinity' with sensorgrams below it (assay not named on the sheet); lot 20211228P03
[15] = biological target: T4, recombinant human complement C2 …; assay: kinetic binding measurement, table 'Human C2 binding affinity' with sensorgrams below it (assay not named on the sheet); lot 20211215P05

B1: anti-C2 antibody 139.14 (antibody, IgG4, V domains shown)
VH: QVQLRESGPGLMKPSETLSLTCTVSGGSVSSGVYYWTWIRQPPGKGLEWIGSMFYSGNADYNPSLKSRVTISVDTSKNQFSLRLNSVSAADMAVYYCARGYASGWSYYFDYWGQATLVTVSS
VL: SSELTQDPTVSVALGQTVRITCQGDSLRTYYASWYQQKPGQAPVLVLYGKNNRPSGIPDRFSGSSSGNTASLTITGAQAEDEADYYCNSRYSSGTHVVFGGGTKLTVL
notes: Recombinant
- EC50 [1]: 131 pM
- EC50 [2]: 115 pM
- EC50 [3]: 208 pM
- EC50 [4]: 59.9 pM

B2: anti-C2 antibody 59.45 (antibody, IgG4, V domains shown)
VH: QLQLQESGPGLVKTSETLSLTCTVSGGSITSGVYYWGWIRQPPGKGLEWIGSIYHGGNTYNNPSLKSRVTIFIDTSKNQFSLKLSSVTAADTAVYYCAEGVSSGWSYYFDYWGQGTLVTVSS
VL: SSELTQDPAVSVALGQTVRITCQGDSLRRFYASWYQQKPGQAPVLVGYGKNNRPSGIPDRFSGSTSGNAASLTITGSQAEDEADYYCNSRDSSGDHLIFGGGTKLTVL
notes: Recombinant
- EC50 [1]: 124 pM
- EC50 [2]: 263 pM
- EC50 [3]: 123 pM
- EC50 [4]: 54 pM

B4: 3.2 H2-10 (a representative pH dependent 3.2 comprising a histidine mutation in the heavy chain CDR2) (antibody, V domains shown)
VH: EVQLLESGGGLVQPGGSLRLSCAASGFTFRHYAMSWVRQAPGKGLEWVSLISGSGASTHYADSVKGRFTISRDNSENMLYLQMNSLRAEDTAVYYCAKDSLAVAGSEYFQHWGQGTLVTVSS
VL: SYVLTQAPSVSVAPGQTARITCGGNYFGGKSVHWYQQRPGQAPVLVVYDDSDRPSGIPERFSGSKSGNTATLAISRVEAGDEAAYYCQVYDTSSDHWVFGGGTKLTVL
- Dissociation (%) pH 7.4 [6]: 8.35%
- Dissociation (%) pH 7.4 [7]: 6.91%
- Kd [8]: 172 pM
- koff [8]: 6.05e-05 s⁻¹
- kon [8]: 353000 M⁻¹ s⁻¹
- Kd [9]: 222 pM
- koff [9]: 9.84e-05 s⁻¹
- kon [9]: 442000 M⁻¹ s⁻¹
- Dissociation (%) pH 5.8 [10]: 62.9%
- Dissociation (%) pH 5.8 [11]: 56.7%
- Fold dissociation pH 5.8/pH 7.4 [12]: 7.53 fold
- Fold dissociation pH 5.8/pH 7.4 [13]: 8.2 fold

More lines, now with the values ahead:

- Kd [5]: 138 pM
- koff [5]: 4.05e-05 s⁻¹
- kon [5]: 294000 M⁻¹ s⁻¹
B3: 3.2pHGL (3.2 pH construct derived from a human germline framework sequence) (antibody, V domains shown)
VH: EVQLLESGGGLVQPGGSLRLSCAASGFTFRHYAMSWVRQAPGKGLEWVSLISGSGASTHYADSVKGRFTISRDNSKNTLYLQMNSLRAEDTAVYYCAKDSLAVAGSEYFQHWGQGTLVTVSS
VL: SYVLTQPPSVSVAPGQTARITCGHNYFGGKSVHWYQQKPGQAPVLVVYDDSDRPSGIPERFSGSNSGNTATLTISRVEAGDEADYYCQVYDTSSDHWVFGGGTKLTVL
notes: also called germlined 3.2 pH

- Kd [14]: 101 pM
- koff [14]: 3.33e-05 s⁻¹
- kon [14]: 330000 M⁻¹ s⁻¹
- Kd [15]: 149 pM
- koff [15]: 4.58e-05 s⁻¹
- kon [15]: 309000 M⁻¹ s⁻¹
B5: 3.2pHGL-IgG1-LALA-LS (3.2 pH-IgG1-LALA-LS derived from germline) (antibody, V domains shown)
VH: EVQLLESGGGLVQPGGSLRLSCAASGFTFRHYAMSWVRQAPGKGLEWVSLISGSGASTHYADSVKGRFTISRDNSKNTLYLQMNSLRAEDTAVYYCAKDSLAVAGSEYFQHWGQGTLVTVSS
VL: SYVLTQPPSVSVAPGQTARITCGHNYFGGKSVHWYQQKPGQAPVLVVYDDSDRPSGIPERFSGSNSGNTATLTISRVEAGDEADYYCQVYDTSSDHWVFGGGTKLTVLG
notes: Heavy chain put together from the named parts
